“Also recorded” adds a separate entry of the source.
Columns and labels:
[1] = target: T1, Del-N11dTCTP (Rattus norvegicus, UniProt P63029); experiment: Inhibition of Del-N11dTCTP-mediated IL-8 secretion by polyclonal antibodies recognizing FL and H2 domains in BEAS-2B cells; format: cell-based; design: dose or concentration left out as unconfirmed; conditions: 20 hours
T1 construct: made in house
T1 sequence (P63029 11-172 limits assumed): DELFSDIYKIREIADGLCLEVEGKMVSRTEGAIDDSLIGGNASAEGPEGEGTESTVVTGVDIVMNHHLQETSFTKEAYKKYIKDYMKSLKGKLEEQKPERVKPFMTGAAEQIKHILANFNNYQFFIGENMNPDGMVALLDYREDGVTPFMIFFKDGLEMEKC
Description: The inhibitory effect on Del-N11dTCTP-mediated IL-8 secretion by the antibody recognizing FL and H2 domains constructed in Example 6 of the invention was investigated by treating the antibody to BEAS-2B cells.
Particularly, BEAS-2B cells were treated with anti-FL antibody and ani-H2 antibody at different concentrations. Then, Del-N11dTCTP-induced IL-8 secretion was compared. The BEAS-2B cells cultured in a 48-well plate were washed with 1% penicillin-streptomycin/BEBM (Lonza) twice, followed by serum starvation for 7 hours. The antibody diluted in PBS at the concentrations of 1 and 10 ng/ml was reacted with 70 μM Del-N11dTCTP at 37° C. for 2 hours. The reaction mixture was treated to the cells above. 20 hours later, the supernatant was obtained and the released IL-8 therein was quantified by ELISA.

[2] = system: BEAS-2B cells; experiment: IL-8 secretion by f-TCTP, Δ-dTCTP and Del-N11dTCTP in BEAS-2B cells; format: cell-based; conditions: protein at 1, 5 or 10 μg/ml, 24 hours, ELISA
Description: (§1) To investigate the IL-8 and GM-CSF secretory activity of f-TCTP, Δ-dTCTP, and Del-N11dTCTP in BEAS-2B cells, the present inventors compared the activity of f-TCTP, Δ-dTCTP, and Del-N11dTCTP by measuring the secretion of IL-8 in BEAS-2B cells.
(§2) Particularly, BEAS-2B cells were cultured in a 48-well plate until the confluency reached to 70%. Then, the cells were washed with 1% penicillin-streptomycin/BEBM (Clonetics) twice. Each recombinant protein of the Δ-dTCTP separated in Example 1 of the invention, and the f-TCTP and Del-N11dTCTP constructed by the method described in Korean Patent Application No. 2006-0007663 was added thereto at the concentration of 1 μg/ ? , 5 μg/ ? , or 10 μg/ ? 24 hours later, the supernatant was obtained and the released IL-8 and GM-CSF were quantified by ELISA.

[3] = target: T1, Del-N11dTCTP; experiment: Inhibition of Del-N11dTCTP-mediated IL-8 secretion by polyclonal antibody recognizing C-terminus domain in BEAS-2B cells; format: cell-based; conditions: Del-N11dTCTP 1 μg/mL, 20 hours
Description: BEAS-2B cells were treated with the antibody recognizing C-terminus domain constructed in Example 8 in order to investigate whether or not the antibody could inhibit the Del-N11dTCTP-mediated IL-8 secretion.
Particularly, BEAS-2B cells were treated with Del-N11dTCTP (1 μg/mL) by the same manner as described in Experimental Example 4. At this time, the antibody diluted in PBS at the concentration of 40 nM was mixed with 1 μg/mL of Del-N11dTCTP at room temperature, followed by reaction for 10 minutes. The reaction mixture was treated to the cells above. 20 hours later, the supernatant was obtained and the separated IL-8 therein was quantified by ELISA.

[4] = system: dTBP2 (dTCTP binding peptide 2); experiment: Affinity of TCTP proteins to immobilized biotinylated dTBP2 (ELISA); conditions: biotinylated dTBP2 0.01-10 μm on streptavidin plate; protein 0.2 μg/ml; ELISA 450/570 nm
Description: To investigate the affinity to dTBP2 of f-TCTP, Δ-dTCTP, and Del-N11dTCTP of the present invention, biotin was conjugated to the COOH-terminus of dTBP2 known to bind to HRF, followed by purification. The purified protein was immobilized in the plastic well coated with streptavidin, to which f-TCTP, Δ-dTCTP, and Del-N11dTCTP were added. Then, the binding strength of each protein was investigated.
Particularly, 50 ? of the biotinylated dTBTP2 dissolved in a buffer (TBS [25 mM Tris, 150 mM NaCl, pH 7.2], 0.1% BSA, 0.05% Tween-20) at different concentrations of 0.01, 0.1, 1, and 10 μm was added to Reacti-Bind Streptavidin Coated Polystyrene Plates (PIERCE), followed by reaction at room temperature for 2 hours. The plate was washed with a washing buffer three times. Each of f-TCTP, Δ-dTCTP, and Del-N11dTCTP was dissolved in TBS at the concentration of 0.2 μg/ ? . 60 ? of the mixture was added to each well of the plate, followed by reaction for 1 hour. The plate was washed with a washing buffer three times. 100 ? of anti-HRF rabbit antibody (Bio-Rad) diluted in a buffer (1:2000) was added to each well of the plate, which stood at room temperature for 30 minutes. The plate was washed with a washing buffer three times and with TBS once, to which HRP-conjugated anti-rabbit antibody (1:2000) was added (100 ? /well), which stood at room temperature for 30 minutes. The plate was washed with a washing buffer three times and with TBS once, to which […] (PIERCE), the peroxydase substrate solution, was added (100 ? /well). Color development was measured at 450 nm and 570 nm using an ELISA reader (Bio-Rad), and affinity was determined by the difference.

[5] = system: BEAS-2B cells; experiment: GM-CSF secretion by f-TCTP, Δ-dTCTP and Del-N11dTCTP in BEAS-2B cells; format: cell-based; conditions: protein at 1, 5 or 10 μg/ml, 24 hours, ELISA
Description: as §1, §2

B1: Del-N11dTCTP: dimer form of amino terminal-deleted TCTP, active HRF form (protein, UniProt P13693 12-172, looked up, fragment)
chain: EMFSDIYKIREIADGLCLEVEGKMVSRTEGNIDDSLIGGNASAEGPEGEGTESTVITGVDIVMNHHLQETSFTKEAYKKYIKDYMKSIKGKLEEQRPERVKPFMTGAAEQIKHILANFKNYQFFIGENMNPDGMVALLDYREDGVTPYMIFFKDGLEMEKC
modifications: dimer
IL-8 secretion, Del-N11dTCTP alone [1]: increased
secretion of IL-8 [2]: more than f-TCTP and Δ-dTCTP could do; also recorded: superior to f-TCTP and Δ-dTCTP
IL-8 secretion, PBS together with Del-N11dTCTP [3]: increased
affinity to dTBP2 [4]: higher affinity to dTBP2 than f-TCTP or Δ-dTCTP; also recorded: higher dTBP2 affinity than f-TCTP and Δ-dTCTP
secretion of GM-CSF [5]: more than f-TCTP and Δ-dTCTP could do; also recorded: superior to f-TCTP and Δ-dTCTP

Reference: US11518805B2, “Binding inhibitor between TCTP dimer type IgE-dependent histamine releasing factor and receptor thereof, and use thereof” (EWHA UNIVERSITY—INDUSTRY COLLABORATION FOUNDATION, priority 2014, dated 2022)
